What was measured:
[1] = substrate: O=[N+]([O-])c1ccc(O[C@@H]2OC[C@@H](O[C@@H]3OC[C@@H](O)[C@H](O)[C@H]3O)[C@H](O)[C@H]2O)cc1; experiment: purified protein; assay type: biochemical, Acetivibrio clariflavus; details: 50 mM sodium phosphate buffer, pH 6, 40 °C, 0.05–1 mM substrate
[2] = substrate: O=[N+]([O-])c1ccc(O[C@@H]2OC[C@@H](O[C@@H]3OC[C@@H](O[C@@H]4OC[C@@H](O)[C@H](O)[C@H]4O)[C@H](O)[C@H]3O)[C@H](O)[C@H]2O)cc1; experiment: purified protein; assay type: biochemical, Acetivibrio clariflavus; details: 50 mM sodium phosphate buffer, pH 6, 40 °C, 0.05–1 mM substrate

B1: AcXyn30B (Acetivibrio clariflavus DSM 19732) (protein)
chain: SYTASVDVNTTYQTLEGFGAAIAWYNDYLTTHPNKNDLYRILFYDSGLDILRLRNQYRNSNNFGYDDMEIVKYGKIMNPNLKVLLSSWSPPSDLKRNGVMNGGTLAKENGSFVYEKFADYWYNSLVAYRAKGIIPDYISIQNEPEYESGDWETCIFRETETSEYPSYAKALDAVYEKIKDLPDMPKILGVESAGIMNNTVQNYARYMDLSKVYGIAHHLYNGGDPYNPDSFNDIFRSLARDFADKPLFMTEYDYGTPFTTAELIHNSLVVEGVSGYFYWDLIWENSQRPLVAIEVPRNPEQWTTKEGYIISDFYYIMQQFAKFTDPGYKRVDASVSSNDIKVSAFVSPDKSKLTMIFINKGYSEHSVALDLKGYSSNKSIIYRTLPEGNERFKKVGSLFGNTVTLPARSVVTVALGVDDEEQIPPQLPTPTPKPESRSAYDIIQAEDYNEMYGIQCETIADDGNKNVAYIENGDYILFKGVDFGTGATGFEASVASAESGGAIEIRLDELYGTTVVKIPVSGTGDWHNYVTVKADIPEIKGKHDLYLVFTGGGGYLFNIDWFVFTGGTVENPVPEVIYGDVNGDGDFNSIDYGYLKMYLLGQIKEFPSKDGMIAADVNGDGTVNSIDYAYMKMRLLGQISKFPVE
notes: purchased from NZYTech (CZ0917); full-length 673 aa: signal peptide 28 aa, GH30 29-446, CBM6 469-593, dockerin 602-673
[1]
  Km: 0.21 mM
  kcat: 7.4 s⁻¹
  kcat/Km: 34900 M⁻¹ s⁻¹
[2]
  Km: 0.23 mM
  kcat: 10.4 s⁻¹
  kcat/Km: 56100 M⁻¹ s⁻¹
